# B1: CPEB3 Ribozyme (parent)
# chain: UAACAGGGGGCCACAGCAGAAGCGUUCACGUCGCAGCCCCUGUCAGAUUCUGGUGAAUCUGCGAAUUCUGCUGUAUAUCUC
# Variants of: B1
# Assay: self-cleavage, relative activity (ratio to wild type); higher = more cleavage; in vitro, sequencing
# Method in brief: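 For each CPEB3 ribozyme variant, relative activity is its cleaved/total read fraction divided by the unmutated ribozyme's. Barcoded error-prone PCR libraries were transcribed by T7 RNA polymerase (5 hours, 37°C) and held in DNase I for 15 min before an EDTA stop, with cleavage occurring throughout. Template-switching reverse transcription and Illumina sequencing were used to read the RNAs. A 5-read minimum applied, and results are the mean of three batches.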
row,Variant,self-cleavage
1,UAACAGGGGGCCACAGCAGAAGCGUUCACGUAGCAGCCCCUGUCAGAUUCUGGUGAAUCUGCGAAUUCUUCUGUAUAUCUC [C32A G70U],0.12
2,UAACAGGGGGCCACAGCAGAAGCGUUCACGUUGCAGCCCCUGUCAGAUUCUGGUGAAUCUGCGAAUUCUGCUGUAUAUCUC [C32U],0.28
3,UAACAGGGGGCCACAGCAGAAGCGUUCACGUGGCAGCCCCUGUCAGAUUCUGGUGAAUCUGCGAAUUCUGCUGUAUAUCUC [C32G],0.23
4,UAACAGGGGGCCACAGCAGAAGCGUUCACGUAGCAGCCCCUGUCAGAUUCUGGUGAAUCUGCGAAUUCAGCUGUAUAUCUC [C32A U69A],0.18
5,UAACAGGGGGCCACAGCAGAAGCGUUCACGUAGCAGCCCCUGUCAGAUUCUGGUGAAUCUGCGAAUUCCGCUGUAUAUCUC [C32A U69C],0.07
6,UAACAGGGGGCCACAGCAGAAGCGUUCACGUAGCAGCCCCUGUCAGAUUCUGGUGAAUCUGGGAAUUCUGCUGUAUAUCUC [C32A C62G],0.13
7,UAACAGGGGGCCACAGCAGAAGCGUUCACGUUGCGGCCCCUGUCAGAUUCUGGUGAAUCUGCGAAUUCUGCUGUAUAUCUC [C32U A35G],0.18
8,UAACAGGGGGCCACAGCAGAAGCGUUCACGUUGCCGCCCCUGUCAGAUUCUGGUGAAUCUGCGAAUUCUGCUGUAUAUCUC [C32U A35C],0.18
9,UAACAGGGGGCCACAGCAGAAGCGUUCACGUAGCAGCCCCUGUCAGAUUCUGGUGAAUCUGCGAAUUCUGCUGUACAUCUC [C32A U76C],0.25
10,UAACAGGGGGCCACAGCAGAAGCGUUCACGUAGCAGCCCCUGUCAGAUUCUGGUGAAUCUGCGAACUCUGCUGUAUAUCUC [C32A U66C],0.16
11,UAACAGGGGGCCACAGCAGAAGCGUUCACGUAGCAGCCCCUGUCAGAUUCUGGAGAAUCUGCGAAUUCUGCUGUAUAUCUC [C32A U54A],0.29
12,UAACAGGGGGCCACAGCAGAAGCGUUCACGUAGCAGCCCCUGUCAGAUUCUGGCGAAUCUGCGAAUUCUGCUGUAUAUCUC [C32A U54C],0.32
13,UAACAGGGGGCCACAGCAGAAGCGUUCACGUAGCAGCCCCUGUCAGAUUCUGGUGAAUAUGCGAAUUCUGCUGUAUAUCUC [C32A C59A],0.15
14,UAACAGGGGGCCACAGCAGAAGCGUUCACGUGGCAGCCCCUGUCAGAUUCUGGUGAGUCUGCGAAUUCUGCUGUAUAUCUC [C32G A57G],0.1
15,UAACAGGGGGCCACAGCAGAAGCGUUCACGUGGCAGCCCCUGUCAGAUCCUGGUGAAUCUGCGAAUUCUGCUGUAUAUCUC [C32G U49C],0.11
16,UAACAGGGGGCCACAGCAGAAGCGUUCACGUAGCAGCCCCUGUCAGAUUCUGGUGAAUCUGCGAAUUCUGCAGUAUAUCUC [C32A U72A],0.12
17,UAACAGGGGGCCACAGCAGAAGCGUUCACGUAGCAGCCCCUGUCAGAUUCUGGUGAAUCUGCGAAUUCUGCGGUAUAUCUC [C32A U72G],0.19

row,Variant,self-cleavage
1,UAACAGGGGGCCACAGCAGAAGCGUUCACGUAGCAGCCCCUGUCAGAUUCUGGUGAAUCUGCGAAUUCUGCCGUAUAUCUC [C32A U72C],0.17
2,UAACAGGGGGCCACAGCAGAAGCGUUCACGUGGCAGCCCUUGUCAGAUUCUGGUGAAUCUGCGAAUUCUGCUGUAUAUCUC [C32G C40U],0.22
3,UAACAGGGGGCCACAGCAGAAGCGUUCACGUAGCAGCCCUUGUCAGAUUCUGGUGAAUCUGCGAAUUCUGCUGUAUAUCUC [C32A C40U],0.2
4,UAACAGGGGGCCACAGCAGAAGCGUUCACGUAGCAGCCCGUGUCAGAUUCUGGUGAAUCUGCGAAUUCUGCUGUAUAUCUC [C32A C40G],0.43
5,UAACAGGGGGCCACAGCAGAAGCGUUCACGUGGCAGCCCCUGUCAGAUUCUGGUGAAUCUGCAAAUUCUGCUGUAUAUCUC [C32G G63A],0.14
6,UAACAGGGGGCCACAGCAGAAGCGUUCACGUAGCAGCCCCUGUCAGAUUCUGGUGAAUCUGCGAAUUCUGCUGUAUAUCAC [C32A U80A],0.37
7,UAACAGGGGGCCACAGCAGAAGCGUUCACGUAGCAGCCCCUGUCAGAUUCUGGUGAAUCUGCGAAUUCUGCUGUAUAUCCC [C32A U80C],0.69
8,UAACAGGGGGCCACAGCAGAAGCGUUCACGUAGCAGCCCCUGACAGAUUCUGGUGAAUCUGCGAAUUCUGCUGUAUAUCUC [C32A U43A],0.5
9,UAACAGGGGGCCACAGCAGAAGCGUUCACGUAGCAGCCCCUGCCAGAUUCUGGUGAAUCUGCGAAUUCUGCUGUAUAUCUC [C32A U43C],0.35
10,UAACAGGGGGCCACAGCAGAAGCGUUCACGUGGCAGCCCCUGUCAGAUUCUGGUGAAUCUGCGAAUUCUGCUAUAUAUCUC [C32G G73A],0.22
11,UAACAGGGGGCCACAGCAGAAGCGUUCACGUGGCAGCCCCGGUCAGAUUCUGGUGAAUCUGCGAAUUCUGCUGUAUAUCUC [C32G U41G],0.11
12,UAACAGGGGGCCACAGCAGAAGCGUUCACGUGGCAGCCCCAGUCAGAUUCUGGUGAAUCUGCGAAUUCUGCUGUAUAUCUC [C32G U41A],0.32
13,UAACAGGGGGCCACAGCAGAAGCGUUCACGUAGCAGCCCCUGUCAGAUUCUGGUGAAUCUGCAAAUUCUGCUGUAUAUCUC [C32A G63A],0.4
14,UAACAGGGGGCCACAGCAGAAGCGUUCACGUGGCAGCCCCUGUCCGAUUCUGGUGAAUCUGCGAAUUCUGCUGUAUAUCUC [C32G A45C],0.12
15,UAACAGGGGGCCACAGCAGAAGCGUUCACGUGGCAGCCCCUGUCUGAUUCUGGUGAAUCUGCGAAUUCUGCUGUAUAUCUC [C32G A45U],0.08
16,UAACAGGGGGCCACAGCAGAAGCGUUCACGUAGCAGCCCCUGUCAGAUUCUGGUGAAUCUGCGAAUUCUGCUGCAUAUCUC [C32A U74C],0.22
17,UAACAGGGGGCCACAGCAGAAGCGUUCACGUAGCAGCCCCUGUCAGAUUCUGGUGAAUCUGCGAAUACUGCUGUAUAUCUC [C32A U67A],0.13
